“Also recorded” adds a separate entry of the source. Where no end group is shown, it is not given here.
Assays:
gp96 = gp96 (Homo sapiens, UniProt P14625); test: In vitro binding of IPF with heat shock protein gp96
Description: FIG. 9 is a graph showing binding of an IPF with heat shock protein gp96 at dilutions of IPF 1/2500, IPF 1/500 and IPF 1/100, according to one embodiment of the present invention. A number of approaches may be used to detect complexing between IPF and gp96. By way of example, one such approach may be to obtain specific antibodies against IPF and gp96 and to build a sandwich immunoassay by suitable methods known in the art to detect the presence of these protein complexes. To detect binding of gp96 to IPF, the antigen may be coated on a plate to capture proteins from the sample and then report the binding with a specific detection antibody. The secondary (or detection) antibody may be directly labeled with MSD SULFO-TAG NHS ester or a SULFO-TAG-labeled anti-species, e.g., anti-mouse if the […] antibody is raised in mouse and the […] antibody is raised in a different species than the capture or primary antibody. Antibodies specific to IPF-gp96 complexes may also be used.

human CD4 = human CD4 (Homo sapiens, UniProt P01730); test: Biacore (SPR) binding of IPF to human CD4; settings: in vitro
Protocol: (§1) BIACORE assays were used for binding affinity. This technology measures mass concentration of biomolecules close to a surface. The surface is made specific by attaching one of the interacting partners. Sample containing the other partner(s) flows over the surface: when molecules from the sample bind to the interactant attached to the surface, the local concentration changes and an SPR (surface plasmon resonance) response is measured. The response is directly proportional to the mass of molecules that bind to the surface. The SPR response may be expressed by resonance units (RU). One RU represents change of 0.0001 in the angle of the intensity minimum which is equivalent to a change in concentration of […].
(§2) The exact conversion factor between RU and surface concentration depends on properties of the sensor surface and the nature of the molecule responsible for the concentration change.
(§3) The assays for these bindings were conducted by The Institute for Molecular Medicine using standard protocols.
The BIACORE biosensor instrument for detecting compound ligand interaction. BIACORE may capture proteins including molecules from ctyosolic or tissue extracts on sensor surfaces and measure the binding kinetics. SPR is an optical technique that measures the refractive index change occurring at the sensor liquid-fluid interface layer. […]

[1] = Biacore (SPR) binding of IPF to human serum; settings: in vitro
Protocol: as §1, §2, §3

[2] = stated in contrast to IPF; cited from earlier work

Chain of gp96 (P14625 22-803): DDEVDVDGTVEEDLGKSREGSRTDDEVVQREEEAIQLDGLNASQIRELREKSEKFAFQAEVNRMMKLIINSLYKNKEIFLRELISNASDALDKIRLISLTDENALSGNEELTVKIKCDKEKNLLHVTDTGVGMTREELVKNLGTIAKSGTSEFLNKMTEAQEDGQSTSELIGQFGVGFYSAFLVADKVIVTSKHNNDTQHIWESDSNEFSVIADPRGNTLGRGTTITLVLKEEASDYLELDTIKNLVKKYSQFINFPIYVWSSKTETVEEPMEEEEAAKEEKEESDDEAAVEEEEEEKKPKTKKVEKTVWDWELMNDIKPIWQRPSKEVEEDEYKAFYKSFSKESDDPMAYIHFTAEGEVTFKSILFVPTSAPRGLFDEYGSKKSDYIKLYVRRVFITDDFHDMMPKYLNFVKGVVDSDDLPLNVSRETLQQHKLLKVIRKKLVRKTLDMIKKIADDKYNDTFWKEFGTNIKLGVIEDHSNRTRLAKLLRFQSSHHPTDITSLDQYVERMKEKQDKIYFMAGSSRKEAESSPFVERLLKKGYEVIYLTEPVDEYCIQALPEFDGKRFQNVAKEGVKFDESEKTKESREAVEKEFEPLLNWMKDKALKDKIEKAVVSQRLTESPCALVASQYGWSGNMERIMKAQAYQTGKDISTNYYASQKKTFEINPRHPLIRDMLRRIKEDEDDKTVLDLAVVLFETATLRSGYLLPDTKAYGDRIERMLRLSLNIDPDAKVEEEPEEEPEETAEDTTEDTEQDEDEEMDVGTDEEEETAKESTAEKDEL

| Substance | in vitro binding affinity for gp96 (gp96) | further results |
| --- | --- | --- |
| IPF-1: peptide of SEQ ID NO 1, TLTSGGGAIALPPSMAAPPLGPVAPLTGAIHAPTXG, fragment of approximately 45 kDa from porcine pepsinogen (not fully specified; X: residue not identified in the source; listed as Sus scrofa) | significant in vitro binding affinity | – |
| IPF-2: peptide of SEQ ID NO 2, TLSTATGGAIPPVAAMPPGLVAPTHGPAIHP, from porcine pepsinogen (listed as Sus scrofa) | significant in vitro binding affinity | – |
| IPF-3: peptide of SEQ ID NO 3, NXVPVSVEGYXQITLDSITX, fragment of approximately 13.5 kDa from porcine pepsinogen (not fully specified; X: residue not identified in the source; listed as Sus scrofa) | significant in vitro binding affinity | – |
| IPF-4: peptide of SEQ ID NO 4, MTLTTGSGAIAPAMPPGLPPHTGAIHAPM, from porcine pepsinogen (listed as Sus scrofa) | significant in vitro binding affinity | – |
| IPF-5: peptide of SEQ ID NO 5, CCATSGPCGAVMILTPHLTA, from porcine pepsinogen (listed as Sus scrofa) | significant in vitro binding affinity | – |
| IPF-6: antiviral peptide characterized by SEQ ID NO 6, GDEPLENYLDTEYF, isolated from 45 kDa band of porcine pepsinogen preparation (listed as Sus scrofa) | – | binding with human CD4+ cells (human CD4): significant in vitro binding affinity; also recorded: demonstrates binding in vitro; binding with human serum [1]: demonstrates binding in vitro |
| Pepsin: porcine pepsin A, the starting material, compared for pI | – | pI [2]: low |
